{
  "source": "paper PMC3001128",
  "origin": "cited, not measured here",
  "key": {"[1]": {"biological_target": "CD48 IgV (UniProt P18181)", "sequence (P18181 29-125)": "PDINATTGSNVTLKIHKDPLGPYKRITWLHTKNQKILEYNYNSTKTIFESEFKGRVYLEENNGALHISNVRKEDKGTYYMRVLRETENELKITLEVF"}, "[2]": {"biological_target": "CD58 IgV (Homo sapiens) (UniProt P19256)", "sequence (P19256 30-121)": "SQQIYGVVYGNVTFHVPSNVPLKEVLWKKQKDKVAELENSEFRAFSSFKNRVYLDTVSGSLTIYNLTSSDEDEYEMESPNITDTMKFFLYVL"}, "[3]": {"biological_target": "GITR (Homo sapiens) (UniProt Q9Y5U5)", "sequence (Q9Y5U5 26-241)": "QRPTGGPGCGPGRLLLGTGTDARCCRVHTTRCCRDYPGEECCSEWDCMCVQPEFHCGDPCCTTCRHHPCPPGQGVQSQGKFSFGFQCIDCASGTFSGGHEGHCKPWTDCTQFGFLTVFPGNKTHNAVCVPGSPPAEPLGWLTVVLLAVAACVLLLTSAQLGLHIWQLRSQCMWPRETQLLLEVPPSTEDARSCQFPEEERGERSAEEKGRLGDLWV"}, "[4]": {"biological_target": "NTB-A (Homo sapiens) (UniProt Q96DU3)"}, "[5]": {"biological_target": "SLAM (CD150) (Homo sapiens) (UniProt Q13291)"}},
  "data": [
    {"substance": "2B4 IgV (from UniProt Q07763)", "values": [
      {"measurement": "Kd", "setting": "[1]", "result": 4, "unit": "µM"}
    ]},
    {"substance": "CD2 IgV (from UniProt P06729)", "values": [
      {"measurement": "Kd", "setting": "[2]", "result": 10, "unit": "µM"}
    ]},
    {"substance": "GITRL (from UniProt Q9UNG2)", "values": [
      {"measurement": "Kd", "setting": "[3]", "result": 0.56, "unit": "µM"}
    ]},
    {"substance": "NTB-A (from UniProt Q96DU3)", "values": [
      {"measurement": "Kd", "setting": "[4]", "result": 2, "unit": "µM"}
    ]},
    {"substance": "SLAM (CD150) (from UniProt Q13291)", "values": [
      {"measurement": "Kd", "setting": "[5]", "result": 200, "unit": "µM"}
    ]}
  ]
}
